Read-outs that look alike come from different tables or passages of the source.
Tests used:
[1] = target: T1, porcine pancreas trypsin (Sus scrofa, UniProt P00761); assay: Digestion of labelled protein with trypsin, differential pulse voltammetry; format: biochemical
T1 construct: purchased Sigma; host or cells: porcine pancreas
Procedure: (§1) Protease assays were performed as follows unless stated otherwise. […] Samples were incubated at 37° C. for 1 hour.
A digestion of Fc-BSA with trypsin was carried out as described above. […] The positive reaction has a peak position of 435 mV and a peak height of 4.58×10^−7 A; the no trypsin control reaction has a peak position of 432 mV and a peak height of 2.55×10^−8 A.
A digestion of unlabelled BSA with trypsin was carried out in the same manner as for the labelled molecules as described above. The differential pulse voltammogram results are shown in FIG. 10 in which (a) is the trace for a no-trypsin control reaction and (b) is the trace for trypsin BSA reaction.
A digestion of FcU-BSA with trypsin was carried out as described above. […] The positive reaction has a peak position of 97 mV and a peak height of 5.01×10^−7 A; there was no peak in the no-trypsin control reaction. […]
Five digestions of Fc-BSA with trypsin were carried out using the protocol described above. As described in the general protocol, 2 μl of enzyme was used for each 200 μl reaction; for reaction (i) 10 mg/ml enzyme solution was used; reaction (ii): 1 mg/ml; reaction (iii) 0.1 mg/ml; reaction (iv) 0.01 mg/ml and reaction (v) was a no-trypsin control. The differential pulse voltammogram results are shown in FIG. 14 with baseline correction.
Five digestions of Fc-BSA with trypsin were carried out using the protocol described above. In reaction (i) the incubation at 37° was carried out for 60 minutes, in reaction (ii) for 15 minutes, in reaction (iii) for 5 minutes, in reaction (iv) for 2 minutes and reaction (v) was a 0 minutes no-trypsin control. The differential pulse voltammogram results are shown in FIG. 15 with baseline correction.

[2] = target: T2, porcine stomach mucosa pepsin (Sus scrofa, UniProt P00791); assay: Digestion of Fc-BSA with pepsin, differential pulse voltammetry; format: biochemical
T2 construct: purchased Sigma; host or cells: porcine stomach mucosa
Procedure: as §1
A digestion of Fc-BSA with pepsin was carried out as described above. […] The positive reaction has a peak position of 537 mV and a peak height of 8.90×10^−8 A; the no-pepsin control reaction has a peak position of 522 mV and a peak height of 4.19×10^−8 A.

[3] = system: elastase; assay: Digestion of Fc-BSA with elastase, differential pulse voltammetry; format: biochemical
Procedure: as §1
A digestion of Fc-BSA with elastase was carried out as described above. […] The positive reaction has a peak position of 430 mV and a peak height of 2.57×10^−7 A; the no elastase control reaction has a peak position of 432 mV and a peak height of 2.55×10^−8 A.

[4] = system: carboxypeptidase; assay: Digestion of Fc-BSA with carboxypeptidase, differential pulse voltammetry; format: biochemical
Procedure: as §1
A digestion of Fc-BSA with carboxypeptidase was carried out as described above. […] The positive reaction has a peak position of 435 mV and a peak height of 1.31×10^−7 A; the no elastase control reaction has a peak position of 427 mV and a peak height of 6.86×10^−8 A.

[5] = target: Bacillus thermoproteolyticus rokko thermolysin (Bacillus thermoproteolyticus, UniProt P00800); conditions: for peak: no-thermolysin control reaction; for peak height / peak position: positive reaction
Procedure: The low volume cell of FIG. 1 was filled with approximately 10 ml sodium chloride solution (100 mM). A 200 μl aliquot of the sample for analysis was placed in the glass sample chamber which was then placed in the low volume cell along with the reference and counter electrodes. The electrodes were connected to the AUTOLAB electrochemical workstation and differential pulse voltammetry carried out using the parameters described in Table 1. Prior to analysis the glassy carbon working electrode was polished (using BAS polishing kit catalogue number MF-2060) followed by conditioning. Electrode conditioning consists of cyclic voltammetry, sweeping between +−1 volt in the appropriate background buffer.
Protease assays were performed as follows unless stated otherwise. Lyophilised enzymes were re-suspended to give a concentration of 10 mgml^−1. Enzymes were resuspended in the following solutions: HCl (1 mM, pH 3.0) (trypsin, α-chymotrypsin, pepsin), NaCl (100 mM) (proteinase K, elastase, papain, carboxypeptidase, thermolysin). 75 μl of Fc-BSA solution (0.3-0.6 mgml^−1) was used per reaction. Each reaction was carried out in a total volume of 200 μl and the reactions were performed in the following buffers (final concentrations are given): 100 mM tris HCl pH7.8 (trypsin, α-chymotrypsin, thermolysin, proteinase K); 100 mM tris HCl pH 8.5 (elastase); 200 mM sodium acetate, 200 mM cysteine, 20 mM EDTA (papain); 10 mM HCl pH 2.0 (pepsin); 25 mM tris HCl pH7.5, 500 mM NaCl (carboxypeptidase). 2 μl enzyme (10 mgml^−1) was added to the […] reaction mixture. Samples were incubated at 37° C. for 1 hour. The reaction products were analysed by differential pulse voltammetry as described in Example 1.
Baseline corrected data was obtained using GPES MANAGER (Ecochemie BV, Utrecht, Netherlands) selecting baseline correction from the edit data menu, selecting moving average, minimum peak width 0.003V.
A digestion of Fc-BSA with thermolysin was carried out as described above with the digestion incubation at 37° C.
A digestion of Fc-BSA with thermolysin was carried out as described above with the digestion incubation at 70° C.

[6] = Example 6 reaction (i): 2 μl of 10 mg/ml enzyme solution
[7] = Example 6 reaction (ii): 1 mg/ml enzyme solution
[8] = Example 6 reaction (iii): 0.1 mg/ml enzyme solution
[9] = Example 6 reaction (iv): 0.01 mg/ml enzyme solution
[10] = Example 6 reaction (v): no-trypsin control
[11] = Example 7 reaction (i): incubation at 37° for 60 minutes
[12] = Example 7 reaction (ii): 15 minutes
[13] = Example 7 reaction (iii): 5 minutes
[14] = Example 7 reaction (iv): 2 minutes
[15] = Example 7 reaction (v): 0 minutes no-trypsin control
[16] = positive reaction, 2 μl enzyme (10 mgml^−1), 37° C. for 1 hour
[17] = positive reaction, 10 mM HCl pH 2.0, 37° C. for 1 hour

T1 sequence (P00761 9-231): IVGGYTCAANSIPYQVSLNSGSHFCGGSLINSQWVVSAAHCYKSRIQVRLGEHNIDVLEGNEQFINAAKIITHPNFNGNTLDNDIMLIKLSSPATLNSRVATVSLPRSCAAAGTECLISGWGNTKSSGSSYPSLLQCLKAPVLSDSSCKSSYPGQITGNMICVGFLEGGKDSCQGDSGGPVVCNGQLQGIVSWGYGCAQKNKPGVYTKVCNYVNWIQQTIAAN
T2 sequence (P00791 60-385): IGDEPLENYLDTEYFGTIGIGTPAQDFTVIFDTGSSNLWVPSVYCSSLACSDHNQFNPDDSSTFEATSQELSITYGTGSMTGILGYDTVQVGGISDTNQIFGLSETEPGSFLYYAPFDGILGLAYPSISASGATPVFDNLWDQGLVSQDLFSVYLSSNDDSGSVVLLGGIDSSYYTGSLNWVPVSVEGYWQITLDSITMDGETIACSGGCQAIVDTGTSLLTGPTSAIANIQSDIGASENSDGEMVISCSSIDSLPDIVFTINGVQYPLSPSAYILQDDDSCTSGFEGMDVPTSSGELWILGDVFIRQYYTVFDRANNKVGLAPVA
Bacillus thermoproteolyticus rokko thermolysin, sequence (P00800 233-548): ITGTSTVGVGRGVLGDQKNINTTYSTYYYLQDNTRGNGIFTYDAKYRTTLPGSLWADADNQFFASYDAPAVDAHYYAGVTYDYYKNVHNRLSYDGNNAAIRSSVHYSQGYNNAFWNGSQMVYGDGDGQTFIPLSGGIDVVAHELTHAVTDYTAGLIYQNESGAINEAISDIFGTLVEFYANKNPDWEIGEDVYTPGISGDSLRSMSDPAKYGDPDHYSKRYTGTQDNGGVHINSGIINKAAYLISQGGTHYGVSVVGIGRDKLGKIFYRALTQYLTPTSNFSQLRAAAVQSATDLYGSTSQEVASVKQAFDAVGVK

Fc-BSA: Bovine serum albumin labelled with ferrocene methanoyl groups via N-hydroxysuccinimide ester; estimated 10 to 20 ferrocenes per BSA
peak height [1, 6]: 5.42×10^−7 A | peak position [1, 6]: 430 mV | peak height [1, 7]: 2.29×10^−7 A | peak position [1, 7]: 428 mV | peak height [1, 8]: 1.04×10^−7 A | peak position [1, 8]: 429 mV | peak height [1, 9]: 7.53×10^8 A | peak position [1, 9]: 429 mV | peak height [1, 10]: 3.17×10^−9 A | peak position [1, 10]: 448 mV | peak height [1, 11]: 2.49×10^−7 A | peak position [1, 11]: 435 mV | peak height [1, 12]: 1.88×10^−7 A | peak position [1, 12]: 429 mV | peak height [1, 13]: 1.57×10^−7 A | peak position [1, 13]: 435 mV | peak height [1, 14]: 1.04×10^−7 A | peak position [1, 14]: 428 mV | peak height [1, 15]: 2.11×10^−8 A | peak position [1, 15]: 460 mV | peak height ([1]; no-trypsin control reaction): 2.55×10^−8 A | peak position ([1]; no-trypsin control reaction): 432 mV | peak height [1, 16]: 4.58×10^−7 A | peak position [1, 16]: 435 mV | factor by which current observed at 435 mV increases upon digestion ([1]; trypsin digestion vs no-trypsin control, FIG. 3): 18 | peak height ([2]; no-pepsin control reaction): 4.19×10^−8 A | peak position ([2]; no-pepsin control reaction): 522 mV | peak height [2, 17]: 8.90×10^−8 A | peak position [2, 17]: 537 mV | peak height ([3]; no elastase control reaction): 2.55×10^−8 A | peak height ([3]; positive reaction, tris HCl pH 8.5, 37° C. for 1 hour): 2.57×10^−7 A | peak height ([4]; no elastase control reaction (so in the source)): 6.86×10^−8 A | peak height ([4]; positive reaction, 37° C. for 1 hour): 1.31×10^−7 A | peak ([5]; 37° C.): no peak was found | peak ([5]; 70° C.): no peak was found | peak height ([5]; digestion incubation at 37° C.): 1.62×10^−8 A | peak position ([5]; digestion incubation at 37° C.): 429 mV | peak height ([5]; digestion incubation at 70° C.): 2.0×10^−8 A | peak position ([5]; digestion incubation at 70° C.): 455 mV

Source: patent US7803572B2, “Protease detection assay” (Atlas Genetics, Ltd., priority 2003, dated 2010)
